This note sets out measurements from the supplement of paper PMC10567573.

A short description of this data set: protein stability index of a GFP-peptide fusion (GPS, HEK-293T) (PSI 1-6); higher = more stable.
Where [1] appears, read: treatment: DMSO, c terminus: a fixed tail appended.
Where [2] appears, read: treatment: MLN4924 1 uM, 8 h, c terminus: a fixed tail appended.
Where [3] appears, read: treatment: DMSO, c terminus: native.
[4] abbreviates: treatment: MLN4924 1 uM, 8 h, c terminus: native.

± gives the standard deviation.
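Note: 24-mer peptide tiles fused after GFP, lentivirally expressed, FACS-sorted into six equal bins by GFP/DsRed ratio, decoded by Illumina sequencing, PSI is the read-weighted mean bin number.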

On to LINSNVSMVDLTSVTLEDVTPKKS [FAN1], for which the protein stability index worked out at 3.34 ± 0.25 under setting [1] and 3.55 ± 0.17 under setting [2].

LIQPINHTTLQCLAARVIVNHRIY [FEM1C]: the protein stability index worked out at 2.39 ± 0.3 under setting [1] and 2.38 ± 0.43 under setting [2].

As for LKASEPGLFAVGEHTGEVRTARAL [PCDHGA10], the protein stability index came out at 4.06 ± 0.35 under setting [1] and 4.21 ± 0.16 under setting [2].

Turning to LKEDGMETVPWFPKKISDLDHCAN [TPH1], the protein stability index runs as follows: under setting [1], 4.11 ± 0.25; under setting [2], 4.09 ± 0.21.

In the case of LKKLAEENPDLQEAYIAKQKRLKS [GDAP1], the protein stability index stood at 4.38 ± 0.22 under setting [1] and 4.6 ± 0.28 under setting [2].

In the case of LKLALDMEIATYRKLLESEECRMS [KRT71], the protein stability index by setting is: under setting [1], 2.79 ± 0.46; under setting [2], 2.88 ± 0.24.

Take LKLWEIGKIIGGMWRDLTDEEKQE [SMARCE1]: the protein stability index under setting [1] came to 2.67 ± 0.55 and the protein stability index under setting [2] was 3.44 ± 0.43.

On to LKNSNYESIQQTARSIAEQAHELA [PPTC7], for which the protein stability index was found to be 3.91 ± 0.54 under setting [1] and 3.78 ± 0.26 under setting [2].

As to LKYVRGLLQTEPQNNQAKELERLI [FIS1], the protein stability index came to 2.89 ± 0.29 under setting [1] and 3.02 ± 0.29 under setting [2].

Turning to LLAAREDLSKIIRTSSGTSREKTA [FAM98B], the protein stability index is, setting by setting: under setting [1], 4.05 ± 0.15; under setting [2], 4.23 ± 0.24.

On to LLDLDPEVECLKANTNEVLWAVVA [GOLPH3], for which the protein stability index was 1.94 ± 0.21 under setting [1] and 2.22 ± 0.41 under setting [2].

For LLESPQLATLAEDVTAALAKQGL [MAP2], the protein stability index stood at 4.66 ± 0.21 under setting [3] and 4.53 ± 0.2 under setting [4].

For LLFCCQCVDVVFYNPDLKKVVEAH [RHOBTB3], the protein stability index reads like this: under setting [1], 2.4 ± 0.14; under setting [2], 3.01 ± 0.52.

With LLFSGGLSESETGPMEEVERQVLP [PBXIP1], the protein stability index runs as follows: under setting [1], 4.06 ± 0.27; under setting [2], 4.18 ± 0.38.

As for LLGPATGCLLDDGLEGLFEDIDTS [SERTAD1], the protein stability index by setting is: under setting [1], 4.27 ± 0.097; under setting [2], 4.32 ± 0.37.

Consider LLKHSNIVRLHDSISEEGFHYLVF [CAMK2B], for which the protein stability index reads like this: under setting [1], 2.68 ± 0.46; under setting [2], 2.42 ± 0.37.

Take LLLILCMQHSFPEPGRLYLDLILA [TMEM192]: the protein stability index runs as follows: under setting [1], 3.3 ± 0.48; under setting [2], 3.11 ± 0.32.

Regarding LLLLLFWGVVSHSFPATLETQEQD [MMP1], the protein stability index stood at 2.97 ± 0.58 under setting [1] and 2.76 ± 0.82 under setting [2].

With LLLSFWKETDPLTFNFISSLKAIC [PLD5], the protein stability index was determined as 3.47 ± 0.96 under setting [1] and 2.44 ± 0.12 under setting [2].

LLNPEKYKAKSRSPGSPVGEGTGS [ADD1]: the protein stability index reads like this: under setting [1], 4.52 ± 0.26; under setting [2], 4.55 ± 0.21.

LLPTLYEIHSKTTAYSRLNETQPI [RNF180] gave a protein stability index under setting [1] of 1.96 ± 0.15 and a protein stability index under setting [2] of 2.15 ± 0.41.

Regarding LLQIIDTTLLKCYLHTNVALVAPL [VPS39], the protein stability index by setting is: under setting [1], 3.13 ± 0.49; under setting [2], 3.38 ± 0.21.

Regarding LMGPSRMSLFSLYMVQDQHECILP [M1AP], the protein stability index came to 2.58 ± 0.3 under setting [1] and 2.33 ± 0.24 under setting [2].

Take LNCPFCGARLGGFNFVSTPKCSCG [RNF180]: the protein stability index under setting [1] was found to be 2.25 ± 0.51 and the protein stability index under setting [2] amounted to 3.28 ± 0.38.

Regarding LNECVGTAYWALAGSIGGLFFAVG [SLC22A15], the protein stability index was 3.19 ± 1.4 under setting [1] and 3.72 ± 0.21 under setting [2].

With LNIYKTLKTHLIEKGILQPTLKV [CDS1], the protein stability index is 2.71 ± 0.94 under setting [3] and 2.86 ± 0.8 under setting [4].

In the case of LNLNYNCISDELLENLCENASTLR [FBXO39], the protein stability index runs as follows: under setting [1], 3.28 ± 0.16; under setting [2], 3.29 ± 0.21.

For LNSPPGPHSAKTEEHTTILRPSYT [CDC14A], the protein stability index by setting is: under setting [1], 4.41 ± 0.61; under setting [2], 4.651 ± 0.039.

As for LPGNTTEATPRSLRASGSLCGPHA, the protein stability index by setting is: under setting [1], 4.46 ± 0.38; under setting [2], 4.28 ± 0.3.

For LPLDDQVALLRAHAGEHLLLGATK [HNF4A], the protein stability index reads like this: under setting [1], 3.6 ± 0.19; under setting [2], 3.63 ± 0.19.

For the sequence LPNASADSLGGSQEMVQRPQPHRN [TRAF3IP2], the protein stability index runs as follows: under setting [1], 5.25 ± 0.13; under setting [2], 5.26 ± 0.16.

For the sequence LPPSMERGYPPPRDSYSSSSRGAP [RBMX], the protein stability index was 4.5 ± 0.17 under setting [1] and 4.53 ± 0.2 under setting [2].

As to LPSLRTVSSSVIEQLFFVRLVGKT [NR2F2], the protein stability index reads like this: under setting [1], 2.44 ± 0.37; under setting [2], 2.28 ± 0.071.

For the sequence LPTTKMAQTNPTPGSLGPWKITIY [CRYBA1], the protein stability index runs as follows: under setting [1], 2.71 ± 0.48; under setting [2], 2.19 ± 0.49.

In the case of LPWSSVLRVWDMFFCEGVKIIFRV [TBC1D10A], the protein stability index came to 2.96 ± 0.72 under setting [1] and 3.34 ± 0.86 under setting [2].

Under setting [2], LQGDLKTLMGKLKLKNTVTIQQEK [SASS6] had a protein stability index of 2.81 ± 0.25.

With LQMKLEKLREKERKKEAKRKISSL [FAM50A], the protein stability index by setting is: under setting [1], 3.71 ± 0.45; under setting [2], 3.98 ± 0.53.

Regarding LQNFSSSWSDGMAFCALVHSFFPD [SMTNL2], the protein stability index under setting [1] is 2.6 ± 0.39 and the protein stability index under setting [2] was found to be 2.42 ± 0.44.

With LREERGHPLHPRHRKAVHLRTRGR [C6orf223], the protein stability index is 4.08 ± 0.23 under setting [1] and 4.06 ± 0.36 under setting [2].

Take LRFFKEKDGKAFHPTYEEKLKLVA [ACBD3]: the protein stability index is, setting by setting: under setting [1], 2.53 ± 0.26; under setting [2], 2.5 ± 0.55.

LRLENNHCHIEESEHVLKKAHKYS [VPS39]: the protein stability index runs as follows: under setting [1], 2.87 ± 0.37; under setting [2], 3.31 ± 0.45.

Take LRQFFKQLPSPPFLPAAGTADCR [CEBPD]: the protein stability index amounted to 1.89 ± 0.67 under setting [3] and 2.16 ± 0.28 under setting [4].

On to LSLGLATVDIQNPDITSSRYRGLP [WAS], for which the protein stability index by setting is: under setting [1], 2.96 ± 0.25; under setting [2], 3.12 ± 0.22.

With LSPDIMKDAYVQKLVKVCNGHDCW [TENT5D], the protein stability index reads like this: under setting [1], 2.41 ± 0.72; under setting [2], 2.35 ± 0.17.

Regarding LSRLSLMAMPNGFHEDGPQGPGGD [PSD2], the protein stability index by setting is: under setting [1], 4.89 ± 0.15; under setting [2], 4.62 ± 0.13.

Consider LSRYQNELAGVDTELLAERFYYQA [SMG5], for which the protein stability index was determined as 2.7 ± 0.51 under setting [1] and 2.81 ± 0.43 under setting [2].

Take LSSRWKNWWIRGILTLTMISLFFL [CDS1]: the protein stability index is 2.54 ± 0.37 under setting [1] and 2.17 ± 0.36 under setting [2].

Consider LTAQGQQFHCHKAVLASCSQYFRS [KLHL14], for which the protein stability index runs as follows: under setting [1], 2.27 ± 0.25; under setting [2], 2.37 ± 0.33.

With LTHLVKLDLSKNKLQQLPADFGRL [LRRC59], the protein stability index runs as follows: under setting [1], 2.65 ± 0.19; under setting [2], 2.7 ± 0.17.

As to LTKLREMGREKCHQYWPAERSARY [PTPRD], the protein stability index reads like this: under setting [1], 2.33 ± 0.21; under setting [2], 2.9 ± 0.45.

As to LTLSQYILLDPILMFFIMAAMLSM [POMT2], the protein stability index turned out to be 3.29 ± 0.56 under setting [1] and 2.95 ± 0.69 under setting [2].

Take LTSELDPEKEQEIETIKIIETEDQ [MIA2]: the protein stability index by setting is: under setting [1], 4.84 ± 0.051; under setting [2], 5.46 ± 0.33.

As for LVDVACKHLTDTSHGVRNKCLQLL [INTS4], the protein stability index by setting is: under setting [1], 2.18 ± 0.49; under setting [2], 2.46 ± 0.17.

Regarding LVKHWYQNCKKKLGKLPPQYALEL [OAS1], the protein stability index reads like this: under setting [1], 2.43 ± 0.83; under setting [2], 2.51 ± 0.63.

Regarding LVKKVEEDEAGGRFVAFSGEGQSL [UFD1], the protein stability index reads like this: under setting [1], 4.71 ± 0.14; under setting [2], 4.81 ± 0.18.

In the case of LVLEQFLTILPTEIETWVREHCPE [ZNF449], the protein stability index amounted to 2.2 ± 0.47 under setting [1] and 2.35 ± 0.47 under setting [2].

Turning to LVTLNDMKAKQEALVKEREKQLAK [FAM50A], the protein stability index was 4.23 ± 0.24 under setting [1] and 4.25 ± 0.45 under setting [2].

As to LWEAEDRQNVPRKVPNHYIAIPEW [CPXM2], the protein stability index amounted to 3 ± 0.31 under setting [1] and 3.02 ± 0.32 under setting [2].

For the sequence LWRSRVVPDREEGGSGGGGGGDED [SMAD6], the protein stability index was 5.36 ± 0.29 under setting [1] and 5.45 ± 0.14 under setting [2].

On to LYKEELEQTYHAKLENARLSSEMN [LMNB1], for which the protein stability index amounted to 3.21 ± 0.64 under setting [1] and 3.62 ± 0.25 under setting [2].

For MAETSLLEAGASAASTAAALENLQ [TRIM39], the protein stability index is, setting by setting: under setting [1], 4.59 ± 0.32; under setting [2], 4.4 ± 0.29.

Consider MAGRLMIRKLVAEKLNIPWNHIRL [AASDHPPT], for which the protein stability index runs as follows: under setting [1], 2.4 ± 0.94; under setting [2], 2.12 ± 0.34.

As for MAPLQPSTSRAHKLPSRRQPGLLH [FAM189A2], the protein stability index is 3.62 ± 0.18 under setting [1] and 3.72 ± 0.28 under setting [2].

In the case of MAQSRDGGNPFAEPSELDNPFQDP [SCAMP3], the protein stability index turned out to be 5.19 ± 0.17 under setting [1] and 5.19 ± 0.23 under setting [2].

Sequence MASCPDSDNSWVLAGSESLPVETL [PBXIP1] came in with a protein stability index under setting [1] of 4.31 ± 0.27 and a protein stability index under setting [2] of 4.41 ± 0.22.

As to MASSPIQPRKGGADWLGLKDEDLD [FBF1], the protein stability index by setting is: under setting [1], 5.12 ± 0.37; under setting [2], 5.07 ± 0.26.

With MAVTGWLESLRTAQKTALLQDGRR [DPCD], the protein stability index by setting is: under setting [1], 2.51 ± 0.14; under setting [2], 2.68 ± 0.17.

As for MCEQCDVFYCDPCRLRCHPPRGPL [TRIM9], the protein stability index stood at 2.8 ± 0.32 under setting [1] and 2.72 ± 0.35 under setting [2].

Take MDIGQPKDFLTGMCLFLQSLRQKQ [GMPPB]: the protein stability index runs as follows: under setting [1], 2.46 ± 0.11; under setting [2], 2.72 ± 0.39.

For MDRSLVQDAPLSDCTETIEGLELT [ADD1], the protein stability index stood at 5.27 ± 0.28 under setting [1] and 5.32 ± 0.19 under setting [2].

For the sequence MDTAMEVVKFVNFLLVNGFQTAID [TRAF3IP2], the protein stability index by setting is: under setting [1], 2.73 ± 1.1; under setting [2], 2.79 ± 0.086.

For the sequence MEDSQETSPSSNNSSEELSSALHL [NECAB1], the protein stability index reads like this: under setting [1], 5.57 ± 0.18; under setting [2], 5.55 ± 0.18.
